{"source": "patent US20030206865A1", "about": "“Conjugates of macrocyclic metal complexes with biomolecules and their use for the production of agents for NMR diagnosis and radiodiagnosis as well as radiotherapy” (Schering AG, priority 2001, published 2003)", "assay": "Relaxivity measurement of BSA conjugates in aqueous solution and in plasma", "type": "physicochemical", "conditions": "relaxivity per mol of gadolinium, calculated from the measured values, +37° C., 20 MHz", "experimental": "In this example, the relaxivities of the conjugates from Examples 30-38 were compared with the relaxivities of two comparison substances. As comparison substances, Gd-DTPA (1) with the formula: [drawing 16]\nand Gd-GlyMeDOTA (2) with the formula: [drawing 17]\nwhich were reacted in each case with bovine serum albumin (BSA), were used.\nThe measurements were made in each case in aqueous solution and in plasma at +37° C. and a frequency of 20 MHz. The results are summarized in Table 2 below, whereby the indicated relaxivities per mol of gadolinium were calculated from the measured values: […]", "data": [{"substance": "Gd-GlyMeDOTA [Vergleichssubstanz 2, reference compound]", "values": [{"measurement": "R1 (H2O)", "setting": "aqueous solution", "result": 18.3, "unit": "L/mmol/s"}, {"measurement": "R1 (Plasma)", "setting": "plasma", "result": 20.8, "unit": "L/mmol/s"}]}]}
